Experimental data taken from PMC4460818, “Regulation of NDR1 activity by PLK1 ensures proper spindle orientation in mitosis” (Scientific Reports, 2015).

B1: GST-Mob1A (natural protein, human (cDNA from HeLa), UniProt Q9H8S9 1-216, looked up)
chain: MSFLFSSRSSKTFKPKKNIPEGSHQYELLKHAEATLGSGNLRQAVMLPEGEDLNEWIAVNTVDFFNQINMLYGTITEFCTEASCPVMSAGPRYEYHWADGTNIKKPIKCSAPKYIDYLMTWVQDQLDDETLFPSKIGVPFPKNFMSVAKTILKRLFRVYAHIYHQHFDSVMQLQEEAHLNTSFKHFIFFVQEFNLIDRRELAPLQELIEKLGSKDR
notes: Mob1A; cDNA isolated by PCR from a HeLa cDNA library, cloned into pGEX-6P-1; Vector pGEX-6P-1, BamHI and SalI; also called recombinant Mob1A; source: E. coli, purified by glutathione-agarose beads
B2: MBP-NDR1^3A (enzyme)
chain: not shown
notes: NDR1 kinase, human, full length, Thr7, Thr183 and Thr407 mutated to alanines; Mutants were made on the siRNA-resistant (silent changes) NDR1 plasmid; source: E. coli, purified dissolved MBP-tagged protein
B3: MBP-NDR1^3E (enzyme)
chain: not shown
notes: NDR1 kinase, human, full length, phospho-mimicking mutant of the PLK1 sites Thr7, Thr183 and Thr407 (3E); glutamate is read from that name; Mutants were made on the siRNA-resistant NDR1 plasmid; also called phosphomimetic mutant NDR1^3E; source: E. coli, purified dissolved MBP-tagged protein

Tests used:
[1] = biological target: T1, MBP-NDR1 wild type (human, UniProt Q15208 1-465); experiment: pull-down; GST or GST-fusion protein on agarose beads incubated with purified dissolved MBP-tagged proteins in PBS, 0.1% Triton X-100, 0.5 mM DTT, 4 °C, 3-8 hours; SDS-PAGE, CBB stain; bands quantified by ImageJ for the Mob1A pull-down; details: both partners purified
T1 construct: NDR1 kinase, human, full length; cDNA isolated by PCR from a HeLa cDNA library; Vector pMAL-C2x; also called MBP-tagged NDR1; NDR1^WT; source: E. coli, purified by amylose beads, eluted by 10 mM maltose (told for MBP and the MBP-NDR1 mutants)

[2] = biological target: B1; experiment: as above; details: both partners purified

T1 sequence (Q15208 whole entry, the tested form may be a part): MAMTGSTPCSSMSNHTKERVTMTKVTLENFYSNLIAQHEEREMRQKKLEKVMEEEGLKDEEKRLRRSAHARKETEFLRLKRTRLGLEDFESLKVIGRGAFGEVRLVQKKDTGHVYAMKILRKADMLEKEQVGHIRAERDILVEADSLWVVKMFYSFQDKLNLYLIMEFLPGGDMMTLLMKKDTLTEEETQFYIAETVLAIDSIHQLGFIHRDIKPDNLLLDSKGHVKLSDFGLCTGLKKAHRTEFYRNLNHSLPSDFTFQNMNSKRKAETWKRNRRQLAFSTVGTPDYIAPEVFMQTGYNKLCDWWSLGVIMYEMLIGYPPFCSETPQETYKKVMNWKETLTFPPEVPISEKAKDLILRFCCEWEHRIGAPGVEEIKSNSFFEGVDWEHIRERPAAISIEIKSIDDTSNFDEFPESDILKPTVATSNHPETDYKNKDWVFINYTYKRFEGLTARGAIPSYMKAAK

Binder: B1
binding result [1]: binds

Binder: B2
percent retained relative to NDR1^WT [2]: > 90%

Binder: B3
percent bound relative to NDR1^WT [2]: < 30%
